Assays:
[1] = target: T1, recombinant human GPC-3 protein (human, UniProt P51654 25-559, limits assumed); experiment: SPR, Biacore T200
T1 construct: also called glypican-3; recombinant GPC-3 protein
Description: Affinity of 24 anti-GPC-3 IgG₁ antibodies was measured via Surface Plasmon Resonance (SPR) analysis using Biacore™ T200 system and shown in Table E3 (below).

[2] = target: T1, recombinant human GPC-3 protein; experiment: binding ELISA with biotin-hGPC-3, EC50 calculated from the curves of FIG. 1A to 1C

Binder | Kd [1] | koff [1] | kon [1] | EC50 [2]
anti-GPC-3 IgG1 clone 3A9 (antibody, V domains shown, Tested as IgG1; also called monoclonal antibody 3A9) VH: QVQLQQWGAGLLKPSETLSLTCAVYGGSFSGYYWSWIRQPPGKGLEWIGEINHSGSTNYNPSLKSRVTISVDTSKNQFSLKLSSVTAADTAVYYCARLYKRRPFDYWGQGTL VL: not shown | 12.4 nM | 0.00188 s⁻¹ | 151000 M⁻¹ s⁻¹ | 10.8 nM
anti-GPC-3 IgG1 clone 1F4 (antibody, V domains shown, Tested as IgG1; also called monoclonal antibody 1F4) VH: QVQLQQWGAGLLKPSETLSLTCAVYGGSFSGYYWSWIRQPPGKGLEWIGEINHSGSTNYNPSLKSRVTISVDTSKNQFSLKLSSVTVADTAVYYCARLYKRRPFDYWGQGTL VL: ETTLTQSPGTLSLSPGERATLSCRASQSVSSTYLAWYQQKPGQAPRLLIYGASRRATGSPERFSGGGSGTDFTLTISRLEPEDFAVYYCQHYGNSPGTFGQGTK | 7.2 nM | 0.00129 s⁻¹ | 179000 M⁻¹ s⁻¹ | 10.3 nM
anti-GPC-3 IgG1 clone 4G4 (antibody, V domains shown, Tested as IgG1; also called monoclonal antibody 4G4) VH: QVQLQQWGAGLLKPSETLSLTCAVYGGSFSGYYWSWIRQPPGKGLEWIGEINHSGSTNYNPSLKSRVTISVDTSKNQFSLKLSSVTAADTAVYYCARLYKRRPFDYWGQGTL VL: ETTLTQSPGTLSLSPGERATLSCRASQSVSSSYLAWYQQKPGQAPRLLIYNASRRATGIPDRFSGSGSGADFTLTISRLDPEDFAVYFCQQYGSSPQTFGQGTK | 12.9 nM | 0.00195 s⁻¹ | 151000 M⁻¹ s⁻¹ | 12.3 nM
anti-GPC-3 IgG1 clone 1E1 (antibody, V domains shown, Tested as IgG1; also called monoclonal antibody 1E1) VH: QVQLQQWGAGLLKPSETLSLTCAVYGGSFSGYYWSWIRQPPGKGLEWIGEINHSGSTNYNPSLKSRVTISVDTSKNQFSLKLSSVTAADTAVYYCARLYKRRPFDYWGQGTL VL: VTTLTQSPGTLSLSPGERATLSCRASESVSSRYLAWYQQRPGQAPRLLIYGASRRATGSPERFSGGGSGTDFTLTISRLEPEDFAVYYCQHYGNSPGTFGQGTK | 16.2 nM | 0.00233 s⁻¹ | 144000 M⁻¹ s⁻¹ | 50.1 nM
anti-GPC-3 IgG1 clone 3G12 (antibody, V domains shown, Tested as IgG1; also called monoclonal antibody 3G12) VH: QVQLQQWGAGLLKPSETLSLTCAVYGGSFSGYYWSWIRQPPGKGLEWIGEINHSGSTNYNPSLKSRVTISVDTSKNQFSLKLSSVTAADTAVYYCARLYKRRPFDYWGQGTL VL: ETTLTQSPGTLSLSPGERATLSCRASQSVSSSYLAWYQQKRGQAPRLLIYGASRRATGIPDRFSGSGSGSDFTLTISRLEPEDFAVYYCQQYGSSPSTFGQGTK | 12.5 nM | 0.00169 s⁻¹ | 135000 M⁻¹ s⁻¹ | 11 nM
anti-GPC-3 IgG1 clone 1A12 (antibody, V domains shown, Tested as IgG1; also called monoclonal antibody 1A12) VH: QVQLQQWGAGLLKPSETLSLTCAAYGGSFSGYYWSWIRQPPGKGLEWIGEINHSGSTNYNPSLKSRVTISVDTSKNQFSLKLSSVTAADTAVYYCARLYKRRPFDYWGQGTL VL: ETTLTQSPGTLSLSPGERATLSCRASQSISSIYLAWYQQKPGQAPRLLIYGASRRATGIPDRFSGSGSGTDFTLTISRLEPEDFAVYYCQQYGSSLRTFGQGTK | 27.6 nM | 0.00315 s⁻¹ | 114000 M⁻¹ s⁻¹ | 10.2 nM
anti-GPC-3 IgG1 clone 4A5 (antibody, V domains shown, Tested as IgG1; also called monoclonal antibody 4A5) VH: EVQLVQSGAEVKKPGASVKVSCKASGYTFTSYGISWVRQAPGQGLEWMGWISAYNGNTNYAQKLQGRVTMTTDTSTSTAYMELRSLRSDDTAVYYCARDGLSSSWFYYYYGMDVWGQGTT VL: not shown | 12.5 nM | 0.000946 s⁻¹ | 75700 M⁻¹ s⁻¹ | 15.6 nM
anti-GPC-3 IgG1 clone 1C4 (antibody, V domains shown, Tested as IgG1; also called monoclonal antibody 1C4) VH: QVQLVQSGGGLVKPGRSLRLSCTASGFTFGDYAMHWVRQAPGKGLEWVAVISYDGSNKYYADSVKGRFTISRDNSKNTLYLQMNSLRAEDTAVYYCARDYGDYYRPYGMDVWGQGTT VL: DIQMTQSPSTLSASVGDRVTITCRASQSISKWLAWYQHKPGKAPKVLIYKASTLQSGVPSRFSGSGSGTEFTLTISSLQPEDFATYYCQQLNSYPLTFGGGTK | 14.1 nM | 0.0134 s⁻¹ | 949000 M⁻¹ s⁻¹ | 1.95 nM
anti-GPC-3 IgG1 clone 3C12 (antibody, V domains shown, Tested as IgG1; also called monoclonal antibody 3C12) VH: QVTLKESGPTLVKPTQTLTLTCTFSGFSLSTSGVGVGWIRQPPGKALEWLALIYWNDDKRYSPSLKSRLTITKDTSKNQVVLTMTNMDPVDTATYYCAHSRIAARRVLDYWGQGTL VL: QSVLTQPPSASVAPGKTARITCGGNNIGSKSVHWYQQKPGQSPVLVIYQDTKRPSGIPERFSGSNSGNTATLTISGAQPMDEADYYCQAWYSTIMVFGGGTK | 31.2 nM | 0.00783 s⁻¹ | 251000 M⁻¹ s⁻¹ | 6.76 nM
anti-GPC-3 IgG1 clone 4G11 (antibody, V domains shown, Tested as IgG1; also called monoclonal antibody 4G11) VH: QVQLQESGPGLVKPSGTLSLTCAVSGGSISSSNWWSWVRQPPGKGLEWIGEIYHSGSTNYNPSLKSRVTISVDKSKNQFSLKLSSVTAADTAVYYCARDTSGVAFDYWGQGTL VL: EIVLTQSPGTLSLSPGERATLSCRASQSVSSSYLAWYQQKPGQAPRLLIYGASSRATGIPDRFSGGGSGTDFTLTISRLEPEDSAVYYCQQYDHSPTFGQGTK | 15.5 nM | 0.00229 s⁻¹ | 147000 M⁻¹ s⁻¹ | 7.59 nM
anti-GPC-3 IgG1 clone 3D12 (antibody, V domains shown, Tested as IgG1; also called monoclonal antibody 3D12) VH: EVQLVQSGAEVKKPGSSVKVSCKASGGTFSSYAISWVRQAPGQGLEWMGGIIPIFGTANYAQKFQGRVTITADKSTSTAYMELSSLRSEDTAVYYCARGIAARPSYYYYMDVWGKGTT VL: not shown | 32.4 nM | 0.0035 s⁻¹ | 108000 M⁻¹ s⁻¹ | 45.5 nM
anti-GPC-3 IgG1 clone 1D2 (antibody, V domains shown, Tested as IgG1; also called monoclonal antibody 1D2) VH: EVQLVQSGAEVKKPGSSVKVSCKASGGTFSSYAISWVRQAPGQGLEWMGGIIPIFGTANYAQKFQGRVTITADKSTSTAYMELSSLRSEDTAVYYCAREWQQQLVPLGYMDVWGKGTT VL: ETTLTQSPGTLSLSPGERATLSCRASHSVSSNFLAWYQQKPGQAPRLLIYAASSRTTGVPDRFSGSGSGTDFTLTISRLEPEDSAVYYCQQYGYSPLYTFGQGTK | 4.18 nM | 0.00257 s⁻¹ | 615000 M⁻¹ s⁻¹ | 1.42 nM
anti-GPC-3 IgG1 clone 2F1 (antibody, V domains shown, Tested as IgG1; also called monoclonal antibody 2F1) VH: EVQLVQSGAEVKKPGSSVKVSCKASGGTFSSYAISWVRQAPGQGLEWMGGIIPIFGTANYAQKFQGRVTITADESTSTAYMELSSLRSEDTAVYYCARDSPYYYYMDVWGKGTT VL: DVVMTQSPLFLPVTLGQPASISCRSSQSLVYSDGNTYLSWFQQRPGQSPRRLVYKVSSRDSGVPDRFSGSGSGTDFTLKISRVEAEDVGVYYCMQGTHWPRTFGQGTK | 14.7 nM | 0.00181 s⁻¹ | 124000 M⁻¹ s⁻¹ | 2.61 nM
anti-GPC-3 IgG1 clone 2B5 (antibody, V domains shown, Tested as IgG1; also called monoclonal antibody 2B5) VH: QVQLQESGGGVVQPGRSLRLSCAASGFTFSSYAMHWVRQAPGKGLEWVAVISYDGSNKYYADSVKGRFTISRDNSKNTLYLQMNSLRAEDTAVYYCAKEGTYYYDSSGYWDYYYGMDVWGQGTT VL: DVVMTQSPLSLPVTPGEPASISCRSSQSLLDSDGYNFLDWYVQKPGQSPQRLIYLGSIRASGVPDRFSGSGSGTDFTLKISRVEADDVGVYYCMQALQTPWTFGQGTK | 12.4 nM | 0.0038 s⁻¹ | 306000 M⁻¹ s⁻¹ | 11.9 nM
anti-GPC-3 IgG1 clone 4F9 (antibody, V domains shown, Tested as IgG1; also called monoclonal antibody 4F9) VH: EVQLVQSGAEVKKPGASVKVSCKASGYTFRNYGISWVRQAPGQGLEWMGWISAYNGNTNYAQKLQGRVTMTTDTSTSTAYMELRSLRSDDTAVYYCARADSSSWYVGTYYYYYGMDVWGQGTT VL: not shown | 10.5 nM | 0.00172 s⁻¹ | 164000 M⁻¹ s⁻¹ | 5.29 nM
anti-GPC-3 IgG1 clone 4H1 (antibody, V domains shown, Tested as IgG1; also called monoclonal antibody 4H1) VH: EVQLVQSGGGVVQPGRSLRLSCAASGFTFSSYAMHWVRQAPGKGLEWVAVISYDGSNKYYADSVKGRFTISRDNSKNTLYLQMNSLRAEDTAVYYCARAPGLEDYWGQGTL VL: DIQMTQSPSSLSASVGDRVTITCRASQSISSYLNWYQQKPGTAPKLLIYAASSSLQSGVPSRFSGSGSGTDFALTISSLQPEDFATYYCLQDYNYPLTFGGGTK | 44.2 nM | 0.0137 s⁻¹ | 311000 M⁻¹ s⁻¹ | 4.1 nM
anti-GPC-3 IgG1 clone 4A12 (antibody, V domains shown, Tested as IgG1; also called monoclonal antibody 4A12) VH: not shown VL: LPVLTQPPSVSVSPGQTARITCSGYELGDKYAFWYQQKPGQSPVLVIYQDTKRPSGIPERFSGSSSGDTATLIISGTQILDEADYYCQAWDSSTHVVFGGGTK | 22.9 nM | 0.00609 s⁻¹ | 266000 M⁻¹ s⁻¹ | 6.61 nM
anti-GPC-3 IgG1 clone 3C6 (antibody, V domains shown, Tested as IgG1; also called monoclonal antibody 3C6) VH: QVQLQESGGGVVQPGRSLRLSCAASGFTFSSYAMHWVRQAPGKGLEWVAVISYDGSNKYYADSVKGRFTISRDNSKNTLYLQMNSLRAEDTAVYYCAYGRYNWNLYFDYWGQGTL VL: NFMLTQPHSVSESPGKTVTISCTGSSGSIASNYVQWYQQRPGSVPTTVIYEDNQRPSGVPDRFSGSIDSSSNSASLTISGLKTEDEADYYCQSFDSSNYWVFGGGTK | 8.18 nM | 0.000472 s⁻¹ | 57700 M⁻¹ s⁻¹ | 20.9 nM
anti-GPC-3 IgG1 clone 1H10 (antibody, V domains shown, Tested as IgG1; also called monoclonal antibody 1H10) VH: QLQLQESGGGLVQPGGSLRLSCAASGFTFSSYVMSWVRQAPGKGLEWVSTISGSGGSTYYADSVKGRFTISRDNSKNTLYLQMSSLRAEDTAVYYCVMGWYFDLWGRGTL VL: EIVLTQSPGTLSLSPGERATLSCRASQSVSSSYLAWYQQKPGQAPRLLIYDASNRATGIPARFSGSGSGTDFTLTISSLEPEDFAVYYCQQRSNWPPRATFGQGTR | 19.7 nM | 0.0147 s⁻¹ | 748000 M⁻¹ s⁻¹ | 1.65 nM
anti-GPC-3 IgG1 clone 1D3 (antibody, V domains shown, Tested as IgG1; also called monoclonal antibody 1D3) VH: QVQLVQSGAEVKKPGASVKVSCKASGYTFTGYYMHWVRQAPGQGLEWMGWINPNSGGTNYAQNFQGRVTITRDTSASTAYMELSSLRSEDTAVYYCARGSWQTGSFDIWGQGTT VL: SYELTQPPSVSGTPGQSVTISCSGSNSNLGSNYVYWYQVVPGTAPKLVIYRNKYRPPGVPDRFSGSKSGTSASLAISGLRSDDEAEYYCSGWDDSLSGRLFGGGTK | 17.2 nM | 0.00293 s⁻¹ | 170000 M⁻¹ s⁻¹ | 1.17 nM

Source: US20260042862A1 (AGENCY FOR SCIENCE TECHNOLOGY AND RESEARCH, published 2026)
